Measurements reported in publication PMC8402216.

Target: T1, ErdR (CrbR), 6His-ErdR (Pseudomonas putida KT2440) (UniProt Q88MD8)
T1 sequence: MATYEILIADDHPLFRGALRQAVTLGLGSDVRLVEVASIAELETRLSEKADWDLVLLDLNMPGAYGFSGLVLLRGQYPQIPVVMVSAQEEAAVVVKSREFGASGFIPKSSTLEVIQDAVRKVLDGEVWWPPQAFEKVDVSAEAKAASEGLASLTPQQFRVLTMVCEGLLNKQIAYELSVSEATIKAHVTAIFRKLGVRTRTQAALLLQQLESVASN
Test: EMSA
Details: 10 mM Tris-HCl pH 8, 2 mM MgCl2, 1 mM DTT, 10% glycerol, 12 ng/uL sheared salmon sperm DNA, 2 mM acetyl phosphate when needed; 2.5 ng DNA in 10 uL, 20 min at …

Row | Sequence | binding | binding signal
1 | AATCGCCTTGCCGTTGCTGGCGAGGTGAATTTTATGGCGCTGGCCAAGGCCGAAACAGTGGGTGTTTTGATAAAGTGTTTTGACAGAATCTGTAACAATCCTGTGGCAAACCCCTCGTTTTTTCGTCGGCAAGGCTGTAA (double strand) [acsA-I (1) promoter] | no binding | –
2 | TAGGCGTCCTTTTTGCTCATGAAACTGACCGTATCGCTATGCCGAACTATATATATCTATATATAGGTACCGGCCATGTTGTTCTCTGCCTCCATGGTCGGCTTGCGGCGGGGTGGTGCCCATTGGACGTAAGTCTATGA (double strand) [pp_0354 promoter] | binds | binds
3 | CGCGAACGGGTCATCACTTTGTTACGCAATCGGTAAAACACCGTTGCATCTAAGACTAAGGTCGTCTGGTTGGCGTCCATCGGCAGCATAAAGTAAGGGTGTGGGTTCCATCCCGTATCTGTGCTGCTAGGACAAAAACA (double strand) [yjcH (actP-I) promoter] | binds | –
4 | AGCAACGGCAAGGCGATTAACAACTGGTAACAGCCCCCACGAAGGCAAGCGTTAATCTCCATCTAATCCCGATAGTTAAAACTAGCAATACTCGCGGCGCCATAAGCGCCGCGTGCCCCCTCACGACCTTAGACAGGTAA (double strand) [acsA-I (2) promoter] | no binding | –
